Source: patent US20250339519A1 (ASHER BIOTHERAPEUTICS, published 2025)

Target: human IL-21 receptor (human, UniProt Q9HBE5 20-232, limits assumed)
Assay: KD at 37 C; method and format not stated

Sequence of human IL-21 receptor (Q9HBE5 20-232 limits assumed): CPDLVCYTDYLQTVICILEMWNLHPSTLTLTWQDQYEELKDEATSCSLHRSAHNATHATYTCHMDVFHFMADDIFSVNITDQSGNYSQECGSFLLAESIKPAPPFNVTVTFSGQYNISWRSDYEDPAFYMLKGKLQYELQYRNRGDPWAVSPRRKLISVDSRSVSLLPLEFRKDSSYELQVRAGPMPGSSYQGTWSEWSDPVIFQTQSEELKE

Kd [µM] | Binder
6.06 | IL-21 v31.23 (ligand, also called hIL21 v31.23) QGQDRHMIRMRQLIDIVDQLKNYVNDLVPEFLPAPEDVETNCEWSAFSCFQKAQLKSANTGNNERIINVSIKKLKQKPPGGEGGGGGGGEGGCPSCDSYEKKPPKEFLERFKSLLQKMIHQHLSSRTHGSEDS
7.73 | IL-21 v31.51 (ligand, also called hIL21 v31.51) QGQDRHMIGMRQLIDIVDQLKNYVNDLVPEFLPAPEDVETNCEWSAFSCFQKAQLKSANTGNNERIINVSIKKLKRKPPGGEGGGGGGGEGGCPSCDSYEKKPPKEFLERFKSLLQKMIHQHLSSRTHGSEDS
